Data: patent US7598225

Target: human HLA A2 molecules (human)
Assay: T2 cell binding assay, peptide at 50 ug/ml, surface HLA A2 stained with MAb A2,69, flow cytometry (no peptide: 127.25)
Conditions: remark: other sources report otherwise

mean channel fluorescent intensity: 182
Binder: VISNDVCAQV [PSA peptide 154-163]
